Kd data for 2 molecules are collected here from article PMC10471779 (2023).

What all share (test): SPR
(In general: SPR reads the build-up and loss of mass on a sensor chip optically.)

In assay [1] the target is recombinant cynomolgus galectin-3 (cynomolgus).
In assay [2] the target is T1, recombinant rat galectin-3 (rat, UniProt P08699 1-262).
T1 chain: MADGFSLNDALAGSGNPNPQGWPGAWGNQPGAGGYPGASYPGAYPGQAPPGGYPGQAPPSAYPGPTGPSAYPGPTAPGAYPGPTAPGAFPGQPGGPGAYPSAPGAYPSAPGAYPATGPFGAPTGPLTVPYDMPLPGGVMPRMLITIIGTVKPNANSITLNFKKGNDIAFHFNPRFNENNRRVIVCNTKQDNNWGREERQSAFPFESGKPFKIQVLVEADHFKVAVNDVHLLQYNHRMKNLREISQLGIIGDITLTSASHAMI

For assay [3], the target named is T2, recombinant mouse galectin-3, full length, His-tagged (mGal-3-FL-His Nter) (mouse, UniProt P16110 1-264).
T2 chain: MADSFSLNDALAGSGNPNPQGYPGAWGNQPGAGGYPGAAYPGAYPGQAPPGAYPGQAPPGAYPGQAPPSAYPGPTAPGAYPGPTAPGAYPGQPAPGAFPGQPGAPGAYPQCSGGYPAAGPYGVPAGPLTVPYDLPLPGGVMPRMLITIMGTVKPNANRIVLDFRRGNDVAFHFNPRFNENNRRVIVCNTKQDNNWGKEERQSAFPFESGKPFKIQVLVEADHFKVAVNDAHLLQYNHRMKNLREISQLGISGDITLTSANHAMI

B1: D11 anti-Gal-3 monoclonal antibody (hIgG1 format, LALA) (antibody, V domains shown)
VH: EVQLVESGGSLVKPGGSLRLSCAASGFTFSNYNMNWVRQAPGKGLEWISSIYGSSRYIYYADFVKGRFTISRDNAKNSLYLQMNSLRAEDTAVYYCVRSSYGGMDVWGRGTLVTVSS
VL: QSVLTQPASVSGSPGQSITISCAGTSSDVGGSYNVAWYQQHPGKAPKLMIYYDSYRPSGVSNRFSGSKSGNTASLTISGLQAEDEADYYCSSYTGYSTRVFGGGTKLEIK
The term Kd denotes the concentration at which binding is half-saturated. Take B1: the Kd in assay [1] amounted to 11.4 nM; in assay [2], 8.6 nM.

B2: E07 anti-Gal-3 monoclonal antibody (hIgG1 format, LALA) (antibody, V domains shown)
VH: EVQLVESGGSLVKPGGSLRLSCAASGFTFSNYNMNWVRQAPGKGLEWISNIYGSSRYIYYADFVKGRFTISRDNAKNSLYLQMNSLRAEDTAVYYCVRSYYGGMDVWGRGTLVTVSS
VL: QSVLTQPASVSGSPGQSITISCAGTSSDVGGYYSVSWYQQHPGKAPKLMIYYDSNRPSGVSNRFSGSKSGNTASLTISGLQAEDEADYYCSSYTGYSTRVFGGGTKLEIK
Regarding B2, the Kd was found to be 7.1 nM in assay [1] and 4.1 nM in assay [3].
